Data on six molecules can be found in patent JP2012100585A (dated 2012).

Assay [1] has as its target T1, 組換えヒトLOX−1タンパク質(61−273aa) (human, UniProt P78380 61-273). Put plainly: ELISA, LOX-1 (61-273) on the plate, HRP anti-mouse IgG detection.
The target of assay [2] is T2, BSA (UniProt P02769 25-607).
T2 construct: Negative control antigen; also called BSA(陰性対照、シグマ社)
Nature of the assay: ELISA, BSA on the plate. On the technique in general: ELISA stands for enzyme-linked immunosorbent assay.

The target of assay [3] is T2, BSA. Nature of the assay: ELISA, BSA on the plate, anti-V5 detection.
In assay [4] the target is T1, 組換えヒトLOX−1タンパク質(61−273aa). Put plainly: ELISA on LOX-1 (61-273), anti-V5 detection; 4-parameter logistic fit.

T2 sequence (P02769 25-607 limits assumed): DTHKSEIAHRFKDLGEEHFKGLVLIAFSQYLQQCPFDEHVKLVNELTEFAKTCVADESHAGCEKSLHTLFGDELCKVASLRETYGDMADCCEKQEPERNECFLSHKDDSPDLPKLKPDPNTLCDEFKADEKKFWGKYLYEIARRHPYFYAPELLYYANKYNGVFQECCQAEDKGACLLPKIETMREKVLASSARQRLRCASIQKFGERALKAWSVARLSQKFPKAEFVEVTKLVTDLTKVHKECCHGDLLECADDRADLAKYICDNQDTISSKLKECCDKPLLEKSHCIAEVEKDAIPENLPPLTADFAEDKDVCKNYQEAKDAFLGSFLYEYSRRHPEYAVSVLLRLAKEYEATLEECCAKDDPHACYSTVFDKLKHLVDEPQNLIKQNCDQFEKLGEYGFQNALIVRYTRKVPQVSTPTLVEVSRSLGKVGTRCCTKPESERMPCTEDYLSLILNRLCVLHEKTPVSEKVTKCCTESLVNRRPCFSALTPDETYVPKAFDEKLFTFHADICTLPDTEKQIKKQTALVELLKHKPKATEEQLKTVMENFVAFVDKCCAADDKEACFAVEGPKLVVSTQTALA

B1: マウス抗LOX−1モノクローナル抗体#10−1 (antibody, V domains shown)
VH: EVKLLESGGGLVQPGGSLKLSCAVSGFDFSRYWMSWVRQAPGKGLEWIGEINPDSSTINFTPSLKDKFIVSRDNAKNTLYLQMSKVRSEDTALYYCARNDVLLGAMDYWGQGTSVTVSS
VL: DVLMTQTPLSLPVSLGDQASISCRSSQTIVHSNGKTYLEWYLQKPGQSPKLLIYKVSNRFSGVPDRFSGSGSGTDFTLKISRVEAEDLGVYYCFQGSHVPLTFGAGTKLELK
notes: also called 抗LOX−1抗体#10−1; マウス抗LOX−1抗体#10−1のIgG型
With B1, the results for the binding result (in assay [1]; in the assay with BSA [2]) were “binds” and “no binding (tested: 抗体濃度2ng/mL〜100μg/mL)”, respectively.

B2: Fv型抗LOX−1抗体−ApoB断片融合タンパク質 Fv−B1 (other)
chain: EVKLLESGGGLVQPGGSLKLSCAVSGFDFSRYWMSWVRQAPGKGLEWIGEINPDSSTINFTPSLKDKFIVSRDNAKNTLYLQMSKVRSEDTALYYCARNDVLLGAMDYWGQGTSVTVSSGGGGSGGGGSGGGGSDVLMTQTPLSLPVSLGDQASISCRSSQTIVHSNGKTYLEWYLQKPGQSPKLLIYKVSNRFSGVPDRFSGSGSGTDFTLKISRVEAEDLGVYYCFQGSHVPLTFGAGTKLELKEEEMLENVSLVCPKDATRFKHLRKYTYNYEAESSSGVPGTADSRSATRINCKVELEVPQLCSFILKTSQCTLKEVYGFNPEGKALLKKTKNSEEFAAAMSRYELKLAIPEGKQVFLYPEKDEPTYILNIKRGIISALLVPPETEEAKQVLFLDTVYGNCSTHFTVKTRKGNVATEISTERDLGQCDRFKP
notes: Fusion of scFv (C-terminus) to ApoB fragment (N-terminus) through a linker; FreeStyle 293, His-tag purified; not shown: C-terminal V5 and 6xHis tag from the pEF6/V5/His vector
Consider B2, for which, in the assay with BSA [3], the binding result was “no binding (tested: 1.6ng/mL〜100μg/mL)”.

B3: Fv型抗LOX−1抗体−ApoB断片融合タンパク質 Fv−B3 (other)
chain: EVKLLESGGGLVQPGGSLKLSCAVSGFDFSRYWMSWVRQAPGKGLEWIGEINPDSSTINFTPSLKDKFIVSRDNAKNTLYLQMSKVRSEDTALYYCARNDVLLGAMDYWGQGTSVTVSSGGGGSGGGGSGGGGSDVLMTQTPLSLPVSLGDQASISCRSSQTIVHSNGKTYLEWYLQKPGQSPKLLIYKVSNRFSGVPDRFSGSGSGTDFTLKISRVEAEDLGVYYCFQGSHVPLTFGAGTKLELKTSGAYSNASSTDSASYYPLTGDTRLELELRPTGEIEQYSVSATYELQREDRALVDTLKFVTQAEGAKQTEATMTFKYNRQSMTLSSE
notes: as for B2
With B3, the binding result with BSA [3] is “no binding (tested: 1.6ng/mL〜100μg/mL)”.

B4: Fv型抗LOX−1抗体 (scFv)
scFv: EVKLLESGGGLVQPGGSLKLSCAVSGFDFSRYWMSWVRQAPGKGLEWIGEINPDSSTINFTPSLKDKFIVSRDNAKNTLYLQMSKVRSEDTALYYCARNDVLLGAMDYWGQGTSVTVSSGGGGSGGGGSGGGGSDVLMTQTPLSLPVSLGDQASISCRSSQTIVHSNGKTYLEWYLQKPGQSPKLLIYKVSNRFSGVPDRFSGSGSGTDFTLKISRVEAEDLGVYYCFQGSHVPLTFGAGTKLELK
notes: VH gene was amplified with the #10-1 heavy chain secretion signal; Expressed in FreeStyle 293, purified by His tag; also called Fv型抗体; Fv; not shown: C-terminal V5 and 6xHis tag from the pEF6/V5/His vector
As for B4, the binding result with BSA [3] is “no binding (tested: 抗体濃度2ng/mL〜100μg/mL)”.

B5: Fv型抗LOX−1抗体−ApoB断片融合タンパク質 Fv−B4 (other)
chain: EVKLLESGGGLVQPGGSLKLSCAVSGFDFSRYWMSWVRQAPGKGLEWIGEINPDSSTINFTPSLKDKFIVSRDNAKNTLYLQMSKVRSEDTALYYCARNDVLLGAMDYWGQGTSVTVSSGGGGSGGGGSGGGGSDVLMTQTPLSLPVSLGDQASISCRSSQTIVHSNGKTYLEWYLQKPGQSPKLLIYKVSNRFSGVPDRFSGSGSGTDFTLKISRVEAEDLGVYYCFQGSHVPLTFGAGTKLELKGPQMSASVHLDSKKKQHLFVKEVKIDGQFRVSSFYAKGTYGLSCQRDPNTGRLNGESNLRFNSSYLQGTNQITGRYEDGTLSLTSTSDLQS
notes: as for B2
With B5, the binding result with BSA [3] is listed as “no binding (tested: 1.6ng/mL〜100μg/mL)”. Also, the “fold higher inflection-point concentration against Fv型抗体” value in assay [4] was ~7 倍.

B6: Fv型抗LOX−1抗体−ApoB断片融合タンパク質 Fv−B2 (other)
chain: EVKLLESGGGLVQPGGSLKLSCAVSGFDFSRYWMSWVRQAPGKGLEWIGEINPDSSTINFTPSLKDKFIVSRDNAKNTLYLQMSKVRSEDTALYYCARNDVLLGAMDYWGQGTSVTVSSGGGGSGGGGSGGGGSDVLMTQTPLSLPVSLGDQASISCRSSQTIVHSNGKTYLEWYLQKPGQSPKLLIYKVSNRFSGVPDRFSGSGSGTDFTLKISRVEAEDLGVYYCFQGSHVPLTFGAGTKLELKREIFNMARDQRSRATLYALSHAVNNYHKTNPTGTQELLDIANYLMEQIQDDCTGDEDYTYLILRVIGNMGQTMEQLTPELKSSILKCVQSTKPSLMIQKAAIQALRKMEPKDKDQEVLLQTFLDDASPGDKRLAAYLMLMRSPSQADINKIVQILPWEQNEQVKNFVASH
notes: as for B2
Turning to B6, in the assay with BSA [3], the binding result was “no binding (tested: 1.6ng/mL〜100μg/mL)”. In addition, the “fold higher inflection-point concentration against Fv型抗体” value in assay [4] was ~27 倍.
